Patent US20250034222A1, “IL-38 VARIANTS” (Monash University, priority 2021, published 2025)
“Also recorded” adds a separate entry of the source.

Columns and labels:
[1] = SEC analysis of monomer:dimer proportion of IL-38 variants upon purification; assay type: physicochemical; details: for capacity to form a homodimer / monomer: SEC upon purification, FIG. 11
Experimental: Recombinant IL-38 variants were expressed in BL21-CodonPlus(DE3)-RIL cells (Stratagene) by 0.5 mM IPTG induction (OD600 0.8) overnight at 18° C. Cells expressing IL-38 variants were lysed by sonication in 50 mM Tris-HCl (pH 8.0), 500 mM NaCl, 3 mM β-mercaptoethanol, and 30 mM imidazole. Cells were clarified by centrifugation, filtered through a 0.8 μm membrane, and bound to Ni-NTA resin (Qiagen) for 1 hour at 4° C. on a rotating platform. The resin was washed with 300 ml of 50 mM Tris-HCl (pH 8.0), 500 mM NaCl, 3 mM β-mercaptoethanol, and 30 mM imidazole. The protein was eluted from the Ni-NTA resin (Qiagen) in a buffer containing 50 mM Tris-HCl (pH 8.0), 500 mM NaCl, 3 mM β-mercaptoethanol, and 400 mM imidazole. Protein was further purified on a Superdex 75 Increase 10/300 GL column (Cytiva Life Sciences) in 10 mM HEPES (pH 7.2), 150 mM NaCl, and 2 mM DTT.
The number and elution volume of the elution peaks are indicative of whether the size of the recombinant protein corresponds to monomeric or dimeric IL-38 conformations or both conformations. The proportion of monomer: dimer for each mutant (FIGS. 9 and 11) were calculated by comparing the area under the monomer and dimer peaks from three individual purifications.

[2] = Analytical SEC of IL-38 variants upon extended incubation; assay type: physicochemical; details: 0.165 mg/ml, 37° C., 16 hours, Sorensen's phosphate buffer pH 7.0, 5% glycerol
Experimental: To examine the monomer-dimer equilibrium upon extended incubation, indicated IL-38 variants (residues 3-152, C-terminal His6 tag) were incubated at 0.165 mg/ml and 37° C. for 16 hours in Sorensen's phosphate buffer (0.13 M, pH 7.0) with 5% (v/v) glycerol. The monomer: dimer proportion was examined by analytical SEC on a Superdex 75 Increase 10/300 GL column (Cytiva Life Sciences).

[3] = test system: IRF3/7; assay: Poly (I:C)-induced IRF3/7 Quanti-Luc in A549-Dual reporter cells; assay type: cell-based, Human; details: 1 ng/ml Poly (I:C) LMW, 100 nM/l to 100 fM/l variant, 20 h, dexamethasone 5 nM benchmark
Experimental: FIG. 17: IL-38-Fc reduces Poly (I:C)-induced IRF3/7 Quanti-Luc in Human NF-kB-SEAP & IRFLuc Reporter A549-Dual cells from Invivogen (lung epithelial cells). A549-Dual cells were pretreated for 1 h with lipofectamine and (1 ng/ml) Poly (I:C) low molecular weight (LMW) and then stimulated dose dependently (A) 100 nM/l, (B) 1 nM/l, (C) 10 pM/l, (D) 100 fM/l with different IL-38 variants or dexamethasone (5 nM) as benchmark for 20 h. […]
6 μl of A549 Dual cell supernatants or plain stimulation media (background control) and 15 μl of QUANTI-Luc™ solution (InvivoGen) were added to a 384-well plate (Opti-plate-384, PerkinElmer, #6007290) and immediately measured as per manufacturer's instructions. After background subtraction, the %-change in luciferase activity of IL-38 variants (1 nm/l)+Poly (I:C) treated conditions over poly (I:C)+vehicle-treated cells were calculated ([…] of cells treated with poly (I:C)+vehicle=100%).

[4] = SEC, area under monomer and dimer peaks

| Molecule | capacity to form a homodimer / monomer [1] | monomer-dimer equilibrium upon extended incubation [2] | dimer formed upon purification [1, 4] | monomer upon purification [1, 4] | reduction in poly (I:C)-induced IRF3/7 (Quanti-Luc) [3] |
| --- | --- | --- | --- | --- | --- |
| IL-38 (A51D): Variant of IL-38 that forms monomer; SNP rs6743376, mutation at residue 51 (A51D), residues 3-152 (protein) SLPMARYYIIKYADQKALYTRDGQLLVGDPVADNCCAEKICILPNRGLDRTKVPIFLGIQGGSRCLACVETEEGPSLQLEDVNIEELYKGGEEATRFTFFQSSSGSAFRLEAAAWPGWFLCGPAEPQQPVQLTKESEPSARTKFYFEQSW | reduced capacity to form a homodimer | more stable monomer; also recorded: stable monomer |  |  |  |
| V55T: Variant of IL-38 V55T with increased capacity to form monomer, residues 3-152 (protein) SLPMARYYIIKYADQKALYTRDGQLLVGDPVADNCCAEKICILPNRGLARTKTPIFLGIQGGSRCLACVETEEGPSLQLEDVNIEELYKGGEEATRFTFFQSSSGSAFRLEAAAWPGWFLCGPAEPQQPVQLTKESEPSARTKFYFEQSW | reduced capacity to form a homodimer |  |  |  |  |
| T53N: Variant of IL-38 T53N with increased capacity to form monomer, residues 3-152 (protein) SLPMARYYIIKYADQKALYTRDGQLLVGDPVADNCCAEKICILPNRGLARNKVPIFLGIQGGSRCLACVETEEGPSLQLEDVNIEELYKGGEEATRFTFFQSSSGSAFRLEAAAWPGWFLCGPAEPQQPVQLTKESEPSARTKFYFEQSW | reduced capacity to form a homodimer |  |  |  |  |
| WT IL-38: Wild-type IL-38, residues 3-152, alanine at position 51 (called D51A) (protein) SLPMARYYIIKYADQKALYTRDGQLLVGDPVADNCCAEKICILPNRGLARTKVPIFLGIQGGSRCLACVETEEGPSLQLEDVNIEELYKGGEEATRFTFFQSSSGSAFRLEAAAWPGWFLCGPAEPQQPVQLTKESEPSARTKFYFEQSW |  | slow equilibrium between the two states | ~20% | ~80% | slightly less potent than A51D (non-fused) IL-38 |
| V55Q: Variant of IL-38 V55Q with increased capacity to form monomer, residues 3-152 (protein) SLPMARYYIIKYADQKALYTRDGQLLVGDPVADNCCAEKICILPNRGLARTKQPIFLGIQGGSRCLACVETEEGPSLQLEDVNIEELYKGGEEATRFTFFQSSSGSAFRLEAAAWPGWFLCGPAEPQQPVQLTKESEPSARTKFYFEQSW | reduced capacity to form a homodimer |  |  |  |  |
| ΔT53: Locked homodimer IL-38 variant, T53 deleted (protein, UniProt Q8WWZ1 1-152, looked up, variant T53*) Interleukin-1 family member 10: MCSLPMARYYIIKYADQKALYTRDGQLLVGDPVADNCCAEKICILPNRGLARKVPIFLGIQGGSRCLACVETEEGPSLQLEDVNIEELYKGGEEATRFTFFQSSSGSAFRLEAAAWPGWFLCGPAEPQQPVQLTKESEPSARTKFYFEQSW | stable locked dimer | stable as a dimer |  |  | only marginal reduction |
